# According to US20230243070A1 (Molecular Partners, published 2023):
# Substitutions are numbered along the chain they refer to. Like-named read-outs stand apart in the source and are kept apart here.
# B1: BP DARPin® protein #21/#22 (designed binder)
# chain: GSDLGKKLLQAARAGQLDEVRELLKAGADVNAKDLIGVTPLHLAAFSGHLEIVEVLLKASADVNAKDVSGRTPLHVAAKHGHLEIVEVLLKAGADVNAKDLIGFTPLHLAAQFGHLEIVEVLLKAGADVNAQDKSGKTPADLAARAGHQDIAEVLQKAAGSPTPTPTTPTPTPTTPTPTPTGSDLGKKLLQAARAGQLDEVRELLKAGADVNAKDAIGFTPLHLAAFSGHLEIVEVLLKAGADVNAKDVAGYTPLHVAALYGHLVIVEVLLKAGADVNAKDKAGETPLHLAAFAGHLEIVEVLLKAGADVNAQDKSGKTPADLAARAGHQDIAEVLQKAA
# B2: SEQ ID NO 160 (designed binder)
# chain: GSDLGKKLLQAAQAGQDDEVRELLKAGADVNAKDEWGRTPLHVAAYWGHLEIVEVLLKAGADVNAKDSFGLTPLHLAAIEGHLEIVEVLLKAGADVNAQDQQGATPADLAALLGHEDIAEVLQKAA
# B3: DARPin® protein comprising SEQ ID NO 221 (linked to a CD3-specific binding agent) (designed binder)
# chain: GSDLGQKLLLAAAIGQDDEVRILLAAGADVNAKDESGHTPLHYAAHVGHLEIVEVLLKAGDVNAKDHRGFTPLHVAAQIGHLEIVEVLLKAGADVNAQDNWGITPADLAAWWGHEDIAEVLQKAA
# B4: DARPin® protein comprising SEQ ID NO 226 (linked to a CD3-specific binding agent) (designed binder)
# chain: GSDLGKKLLSAAQSGQDDEVRILLGAGADVNAKDKWGHTPLHLAAVKGHLEIAEVLLKAGADVNAKDEWGSTPLHLAASQGHLEIVEVLLKAGADVNAKDKKGATPLHLAALVGHLEIVEVLLKAVADVNAQDKSGKTPADLAARAGHQDIAEVLQKAA
# B5: SEQ ID NO 157 (designed binder)
# chain: GSDLGYKLLYAALFGQDDEVRILLAAGADVNAKDYFGKTPLHIAAYYGHLEIVEVLLKAGADVNAKDRYGITPLHLAALEGHLEIVEVLLKAGADVNAQDTDGITPADLAAWEGHEDIAEVLQKAA
# B6: DARPin® protein #20 (designed binder)
# chain: MRGSHHHHHHGSDLGKKLLQAARAGQLDEVRELLKAGADVNAKDQSGATPLHLAAFRGHLEIVEVLLKAGADVNAKDAAGYTPLHIAAVYGHLEIVEVLLKAGADVNAKDSAGETPLHLAAYAGHLEIVEVLLKAGADVNAQDKSGKTPADLAARAGHQDIAEVLQKAA
# B7: DARPin® protein #22 (designed binder)
# chain: B6 chain with Q45A, S46I, A48F, R57S, A78V, I86V, V89L, E94V, S111K, Y122F
# B8: DARPin® protein #27 (designed binder)
# chain: MRGSHHHHHHGSDLGFKLLQAAHYGQDDEVRILLAAGADVNAKDEYGRTPLHHAALKGHLEIVEVLLKAGADVNAKDEFGTTPLHYAAIFGHLEIVEVLLKAGADVNAQDSSGFTPADLAALVGHEDIAEVLQKAA
# B9: DARPin® protein #26 (designed binder)
# chain: MRGSHHHHHHGSDLGEKLLFAAFIGQDDEVRILLAAGADVNAKDEYGHTPLHAAAQHGHLEIVEVLLKAGADVNAKDQFGLTPLHIAAIFGHLEIVEVLLKAGADVNAQDHAGYTPADLAAWQGHEDIAEVLQKAA
# B10: DARPin® protein comprising SEQ ID NO 230 (linked to a CD3-specific binding agent) (designed binder)
# chain: GSDLGKKLLQAARAGQLDEVHELLKAGADVNAKDQHGKTPMHLAAQIGHLEIVEVLLKAGADVNAKDHIGWTPLHLAASVGHLEIVEVLLKAGADVNAKDQEGWTPLHVAAQLGHLEIVEVLLKAGADVNAQDKSGKTPADLAARAGHQDSAEVLQKAA
# B11: SEQ ID NO 172 (designed binder)
# chain: GSDLGKKLLQAARAGQLDEVRELLKAGADVNAKDEWGATPLHLAAYAGHLEIVEVLLKAGADVNAKDRWGLTPLHVAAVEGHLEIVEVLLKAGADVNAKDIEGETPLHIAAFTGHLEIVEVLLKAGADVNAQDKSGKTPADLAARAGHQDVAEVLQKAA
# B12: SEQ ID NO 167 (designed binder)
# chain: GSDLGKKLLQAARAGQLDEVRELLKAGADVNAKDSSGWTPLHLAAYTGHLEIVEVLLKAGADVNAKDQWGLTPLHLAALEGHLEIVEVLLKAGADVNAKDHTGKTPLHLAAQQGHLEIVEVLLKAGADVNAQDKSGKTPADLAARAGHQDIAEVLQKAA
# B13: SEQ ID NO 165 (designed binder)
# chain: GSDLGEKLLQAALEGQDDEVRELLKAGADVNAKDLVGWTPLHIAAYRGHLEIVEVLLKAGADVNAKDWVGLTPLHLAAIEGHLEIVEVLLKAGADVNAQDREGKTPADLAALLGHEDIAEVLQKAA
# B14: SEQ ID NO 169 (designed binder)
# chain: GSDLGKKLLQAARAGQLDEVRELLKAGADVNAKDHWGKTPLHLAAYEGHLEIVEVLLKAGADVNAKDLFGLTPLHLAAIEGHLEIVEVLLKAGADVNAKDSFGYTPLHVAAQVGHLEIVEVLLKAGADVNAQDKSGKTPADLAARAGHQDIAEVLQKAA
# B15: DARPin® protein #28 (designed binder)
# chain: MRGSHHHHHHGSDLGQKLLKAAALGQDDEVRDLLKAGADVNAKDYQGQTPLHLAAWTGHLEIVEVLLKAGADVNAKDHFGYTPLHIAAHFGHLEIVEVLLKAGADVNAQDAAGQTPADLAAAEGHEDIAEVLQKAA
# B16: DARPin® protein #21 (designed binder)
# chain: MRGSHHHHHHGSDLGKKLLQAARAGQLDEVRELLKAGADVNAKDLIGVTPLHLAAFSGHLEIVEVLLKASADVNAKDVSGRTPLHVAAKHGHLEIVEVLLKAGADVNAKDLIGFTPLHLAAQFGHLEIVEVLLKAGADVNAQDKSGKTPADLAARAGHQDIAEVLQKAA
# B17: DARPin® protein comprising SEQ ID NO 225 (linked to a CD3-specific binding agent) (designed binder)
# chain: GSDLGIKLLFAANFGQDDEVRILLAAGADVNAKDQSGRTPLHLAALWGHLEIVEVLLKAGADVNAKDVFGLTPLHIAATFGHLEIVEVLLKAGVDVNAQDYTGHTPADLAALIGHEDIAEVLQKAA
# B18: DARPin® protein comprising SEQ ID NO 220 (linked to a CD3-specific binding agent) (designed binder)
# chain: GSDLGHKLLFAASAGQDDEVRILLAAGADVNAKDESGQTPLHYAAFVGHLEIVEVLLKAGADVNAKDQWGHTPLHVAATFGHLEIVEVLLKAGADVNAQDTWGTTPADLAATFGHEDIAEVLQKAA
# B19: DARPin® protein comprising SEQ ID NO 229 (linked to a CD3-specific binding agent) (designed binder)
# chain: B18 chain with H6S, F10Y, S13I, A14S, E120V
# B20: DARPin® protein comprising SEQ ID NO 224 (linked to a CD3-specific binding agent) (designed binder)
# chain: B18 chain with H6F, F10E, S13L, A14E
# B21: DARPin® protein comprising SEQ ID NO 228 (linked to a CD3-specific binding agent) (designed binder)
# chain: B18 chain with H6W, F10H, S13T, A14T
# B22: DARPin® protein comprising SEQ ID NO 222 (linked to a CD3-specific binding agent) (designed binder)
# chain: GSDLGYKLLTAAIVGQDDEVRILLAAGADVNAKDQSGLTPLHLAAAYGHLEIVEVLLKAGADVNAKDKHGRTPLHLAALEGHLEIVEVLLKAGADVNAQDQFGITPADLAAAVGHEDIAEVLQKAA
# B23: DARPin® protein comprising SEQ ID NO 227 (linked to a CD3-specific binding agent) (designed binder)
# chain: B22 chain with Y6Q
# How the values were obtained:
# [1] = molecular target: T1, NYESOpMHC on T2 cells pulsed with NY-ESO-1-9V (157-165) peptide; test: flow cytometry on T2 cells pulsed with NY-ESO-1-9V (157-165) peptide
# T1 construct: whole, on cells; also called NY-ESO pulsed cells; pulsed T2 cells
# [2] = molecular target: T2, MAGEA3pMHC, biotinylated recombinant complex (HLA-A*0101, MAGE-A3 peptide) (human); test: ribosome display selection, crude extract HTRF
# T2 construct: also called MAGE-A3 peptide-MHC complex
# [3] = molecular target: T3, HBVc18pMHC, biotinylated recombinant complex (HLA-A*0201: HBVc18) (human; Hepatitis B virus); test: SPR (ProteOn)
# T3 construct: also called HBVc18 peptide-MHC complex
# [4] = molecular target: T4, EBNApMHC (HLA-A*0201:EBNA-1), biotinylated recombinant complex (human; Epstein Barr virus); test: SPR (ProteOn), biotinylated pMHC on NLC chip
# [5] = molecular target: T5, NYESOAApMHC (HLA-A*0201:NYESO1-9VAA), biotinylated recombinant complex (human); test: SPR (ProteOn), biotinylated pMHC on NLC chip
# [6] = molecular target: T1, NYESOpMHC on T2 cells pulsed with …
# [7] = molecular target: T6, NYESOpMHC (HLA-A*0201:NYESO1-9V), biotinylated recombinant complex (human); test: SPR (ProteOn), biotinylated pMHC on NLC chip, PBS with Tween
# T6 construct: also called NY-ESO-1 peptide-MHC complex
# [8] = molecular target: T1, NYESOpMHC on T2 cells pulsed with …; remark: listed apart in the source
# [9] = molecular target: T5, NYESOAApMHC (HLA-A*0201:NYESO1-9VAA), …; test: SPR (ProteOn), biotinylated NYESOAApMHC on the chip
# [10] = molecular target: T4, EBNApMHC (HLA-A*0201:EBNA-1), …
# [11] = molecular target: T5, NYESOAApMHC (HLA-A*0201:NYESO1-9VAA), …
# [12] = molecular target: T6, NYESOpMHC (HLA-A*0201:NYESO1-9V), …
# [13] = molecular target: T4, EBNApMHC (HLA-A*0201:EBNA-1), …; test: SPR (ProteOn), biotinylated EBNApMHC on the chip
binder,measurement,setting,value
B1,EC50,[1],1.4 nM
B2,binding result,[2],binds
B3,Kd,[3],0.369 nM
B4,Kd,[3],13.8 nM
B5,binding result,[2],binds
B6,binding result,[4],"no binding (tested: 3.7 nM to 300 nM, or 250 nM single trace)"
same,binding result,[5],no binding
same,EC50,[6],20.6 nM
same,Kd,[7],5.79 nM
B7,EC50 (read off the curve),[8],~3 nM
same,binding result,[4],"no binding (tested: 3.7 nM to 300 nM, or 250 nM single trace)"
same,binding result,[5],no binding
same,EC50,[6],3.7 nM
same,Kd,[7],0.0685 nM
B8,binding result,[4],"no binding (tested: 3.7 nM to 300 nM, or 250 nM single trace)"
same,binding result,[5],no binding
same,Kd,[7],0.494 nM
B9,binding result,[4],"no binding (tested: 3.7 nM to 300 nM, or 250 nM single trace)"
same,binding result,[5],no binding
same,Kd,[7],1.29 nM
B10,Kd,[3],9.33 nM
B11,binding result,[2],binds
B12,binding result,[2],binds
B13,binding result,[2],binds
B14,binding result,[2],binds
B15,binding result,[4],"no binding (tested: 3.7 nM to 300 nM, or 250 nM single trace)"
same,binding result,[5],no binding
same,Kd,[7],2.57 nM
B16,binding result,[9],no binding
same,KD (fit header over a trace without response),[10],3.05 mM
same,Ka (fit header over a trace without response),[10],2.78e-08 M⁻¹ s⁻¹
same,kd (fit header over a trace without response),[10],8.5e-11 s⁻¹
same,KD (fit header over a trace without response),[11],0.846 pM
same,Ka (fit header over a trace without response),[11],8.23e+06 M⁻¹ s⁻¹
same,kd (fit header over a trace without response),[11],6.97e-06 s⁻¹
same,EC50,[6],4.5 nM
same,koff,[12],0.000473 s⁻¹
same,kon,[12],549000 M⁻¹ s⁻¹
same,binding result,[13],no binding
same,Kd,[7],0.861 nM
B17,Kd,[3],9.23 nM
B18,Kd,[3],4.65 nM
B19,Kd,[3],1.03 nM
B20,Kd,[3],0.736 nM
B21,Kd,[3],4.72 nM
B22,Kd,[3],7.15 nM
B23,Kd,[3],7.1 nM
